Test: soluble on expression in E. coli; label from the status in PepcDB or PDB records

Sequence | soluble on expression in E. coli
MWFKNLTLYRFNKPFSIETEALETALADFTFSPCGSQDVSKFGFSNALGKKGSTLVHSANNRHLICVTKEEKILPAQVIKESLEEKVAQIEDEENRKLAKKEKDALKDEIITSLLPRAFSRRSQTRALILPELEMILVDSSSATKAEELLALLRKALGSLPVIPLSFKAPIESQLTEWLKNGSAPLPFEMQDEAELKSAADEGGIVRFKQQDLKEDEVLAHLETGKEVHKLALHFGQSIALLLQSDASVKRLKFSEEFRAGNDELGNEDPMARLDADFALMGSELVALMHALVSALGGIEETQA | soluble
MGSDKIHHHHHHMTTLDALRVFVEVVRAGSFTAAARRLSISKSLASKRVAALEDELSVNLLNRSTRSLRLTEAGQIYYEHGLRVIEELQSAEAQVQSVTSQPRGQLKVSAQVSFGFMYLAAPTTAFMRRYPDVSVEILLEDQRFEPIDDSVDLAIRMGPLPPSSLVSRPLCKVVYGLYAAPDYLARAGRPLHPRDIADYDTVFYGNYDLGAHWRFSLNGQPLDIEPNSRLVINNLLGVVEAAKSGFGLAYLPTFAARAAVEEGQLIPLLQPYWNEHGSMLVLFRSRKYLPDKTRAYLDFITDWFREHLAL | not soluble
MNSFRWDIYFETGIEDVDDQHQYLVEFINKYGKLLTRNTISIADIQSALFELSRYAEFYFKEEENLMREVGIHHEHLQKHIQVHRTFMGDIVSMQSFINEDNRQSAEQLLDFLIHWLAYHILGIDQNMAKQIKAIERGVSPLEAYREQEQQANASTEP | soluble
MDERTELLKRIEELEEKLRQCQQREQELEALIEEYNEVMKKQFQVFDDFFEKLGTTKMIDPLTRVYAKDHFLRLLSYQHQRAFEENTPYTIFFVKTKVSKNEREKALMKIGKILKECVRVPLDSVGRYSDDTFALFVIGVGKETAPNIEERIKNHIESIGGIEYSIAYKSYPEDFMDLEKAILDLEKAVA | not soluble
MSLQKVKLPLTLDPVRTAQKRLDYQGIYTPDQVERVAESVVSVDSDVECSMSFAIDNQRLAVLNGDAKVTVTLECQRCGKPFTHQVYTTYCFSPVRSDEQAEALPEAYEPIEVNEFGEIDLLAMVEDEIILALPVVPVHDSEHCEVSEADMVFGELPEEAQKPNPFAVLASLKRKEGGSHHHHHH | soluble
MDEQVIKKVVEDVLKKVGIEQKEENKANRGEPVITNPGLTEFVGTALGDTIGLVIANVDASLHEKMGIDPKYRSIGIIGGRTGAGPQIMAADEAVKATNTEVVAIELPRDTKGGAGHGNLIIFGAEEVSDARRAVEVALKELRRTFGDVYVNEAGHLEFQYTARASYALQKAFGAPLGKAFGLIVGAPAAIGVLCCDTAVKAAEVEVIGYASPAKGTSMTNEAILFISGDSGAVRQAIIAAREVGLKLLSTLGEAPKSLSGEPYI | not soluble
MSLVMSDTLNSLQLGERPEGRTLLTASWVVGHKDGSHRLLKNGEVVFENGEILFVGHGFPGEVARRIDFGNALVSPGLIDLDALSDLDTTILGIDHHPGWAKGRVWPRSYVEAGPYEMYSAEELAFQKRFAFGQLLLNGITTAAPIASLFYRAWGETVAEFEAAADAAGELGLRVYLSPAFRSGGMVLEEPGRMFPVFDEERGFQGLKEAIAFIEKQSGRHGDLVRGMLAPDRVETSTLGLIERTDAAARELGCKFRLHMAQGVMEVDTVRKLHGSTAPVWLAKAGLLSERLIAPHATNATEEDLALYAENGVSIVHCPLVSSRGGSTLSSFSSCRKRGINIAMGTDTAPADMFMNLLVGLITCRINDGAPDQIRCADLFDAATLGGARALGRSDLGHLSSGARADIAVFDLDDAVMAPSVDPITTLVTGGSGKVTRAVFVDGRLSMRERQVAHIDMRRAREQAQAQFDRLIAKYPERSWANPPVSEIFPPSYQVEVAQHGEGHHHHHH | soluble
MNRKTGTTTVGIKVKDGVILAADTQASLDHMVETLNIRKIIPITDRIAITTAGSVGDVQMIARILEAEARYYYFAWGRPMTTKAMANLLSNILNENKWFPYLVQIIIGGYVDEPTIANLDPYGGLIFDNYTATGSGTPFAIAILEEGYKENLGIEEAKELAIKAIKAAGSRDVYTGSKKVQVVTITKEGMQEEFIKL | soluble
MLSFCPSCNNMLLITSGDSGVYTLACRSCPYEFPIEGIEIYDRKKLPRKEVDDVLGGGWDNVDQTKTQCPNYDTCGGESAYFFQLQIRSADEPMTTFYKCVNCGHRWKEN | not soluble
MKTLLPTSTAGSLPKPSWLAEPEKLWSPWKLQGEELIDGKRDALRVALQEQELAGVDIVSDGEQTRQHFVTTFIEHLSGVDFENRKTVTIRNRYEASVPTVVGPVSRTKPVFVEDAKFLRQQTKQPIKWALPGPMTMIDTLYDDHYGSREKLAWEFAKILNQEAKELEAAGVDIIQFDEPAFNVFFDDVNEWGIACLERAIEGLKCETAVHICYGYGIKANTDWKQTLGTEWRQYEEVFPKLQQSNIDIISLECHNSRVPIELLELIRGKKVMVGAIDVATNEIETPEEVANTLREALKYVDADKLYPCTNCGMAPLSREVSTAKLNALSAGAEIVRRELSALEHHHHHH | not soluble
MSLRVDTLIRGGVVLTMDGDFTRHDAGYVAVTGGRISHVGADADAAGLSAERVIDAEGGIILPGFVNTHCHAAMTLFRGLADDVDLDGFLRTVWRAEAEHIGPASVELGAELAIAEMALSGVTHFLDMYWYPEATIAAAQRVGMGLTSGPPMLNVEGVDGMGWAERMAYTEGFLERYSGVDGVQPMLLPHGCYTLDADKLAEIANLARAAGCGVHIHAAEAAWEMQLVRDAYGTTPVRALERAGLLEQPLLLAHAVHLDGEEIALLADAGAGVAHCPLSNAKLASGMAPIGEMRASGVTLSLGTDGPASGNDLDMFATMRLAALVHNLRSGTSDTLPARDLVAMATSGGAMALGLGARTGSLEVGKQADITVVATDAPHNVPSYCPYSTLVFSAGRSEVRHVLARGRALVADGRPTTPTEPVKAEVRRLAADIANRRDEGHHHHHH | soluble
MMNNMDSIINYIYEGDYFIVTSHISPDGDNIGSTLSMYYTLKNLGKNVYYVLDDEAPLNLRFLVEGVKIYKSNEFNMKNYSLIALDCGDKMRICVSDEIKNNASKLICIDHHASNDSYGDLNYVDIDASSTCELVYNLLVRFQQIKDINIINEDIATCLYTGLVTDTGNFSYSNVHASSFEMAKNLLVLGAQKNTIIQNIYQSNSSGYYKLLGEALKGLEIFDSKVSSIVLTQDMMNRNNISFNDVDGITTYTRDIKGIEVGILFKEKKQNEIKVSFRSKNYVDVSEIAKLFGGGGHVRAAGCTIRDSIDNAKKMVLEAVLKSI | not soluble
MGSDKIHHHHHHMTSSRSRYLSVMGRELHVTEWGDEAAPALVMWHGLARTGRDFDTLAAHFCDRYRVVCPDTLGRGLSGWSRVPRRDYTLAAYMKHALELLGLLGIDRVTWIGTSMGGALGMLLAAGPLAGRMDRLVMNDIGPTLNPVAVERIRNYLAQHPSFRTMTEFEAYLRQVYRPYGFQTDLEWRRMTETSARRRGDGRITPHYDPAVMRVFAETAGDYEAWGEYDLITCPTLVLRGAESDLLLPEVAQEMTRRGPKARLVTVAGCGHAPSLNVPEQIGVIEDFLA | not soluble
QYCWQHRFPTGYFSICDRYMNGTCPEGNSCKFAHGNAELHEWEERRDALKMKLNKA | soluble
MRRGNRRTPGPVCRQAFRAEFTAIHAPVVFFMSCNRQIVRSLRQQIPSFECVPGCHDCCGPVTTSPEEMSRLPRKTAAEQEAAMDELNCVHLGPNGCTVYDERPLICRLFGTTPSLPCPNGRRPVEMIHPRVEKQIHDYMASTRQVLVLEHHHHHH | not soluble
MGSDKIHHHHHHMTIARRKSREVTIGNVRIGGDNPVVVQSMTNTDTRDVEQTVEQINSLAEAGCEIVRVAVLNDDAAWAIRPIKDQVTVPLVADIHFDHRLAVSALEAGVDALRINPGNIGGQKNVDKVVDAAKAHGSVIRVGVNGGSLERDLVEKYCGPTPEAMVESALRHVRMLEDRNFDNIKISLKSSSVTDTVTAYRLLGQQCEYPLHIGVTEAGTMLRGSVKSSVGIGILLWQGIGDTLRVSLTEDPVAEMAVAWEILRSLGLRFRGPEIISCPTCGRTEIDLISLAGEIERRLQNETQSFKVAVMGCVVNGPGEAREADIGIAGGRDKGIIFRHGEVIRTVKGGSNLLAAFNEELDKFLAERQGR | not soluble
MRDRLLAAEKVKAIDWRDDALYLLDQRVLPFEEVWHRYTTAAGVAEAIRTMVVRGAPAIGISAAYGAVLGARARIAEGGDWYPALEEDMQLLADSRPTAVNLFWALNRIRDRLMRVKNGDNPLAALEAEAVAIHLSDREANLTMAQLGADLIRKHQGNLQTVLTHCNTGALATGGFGTALGVIRAAHLEGMIERVYADETRPWLQGSRLTAWELANEGIPVTLNADSAAAHLMRTKGITWVIVGADRITANGDVANKIGTYQLAVAAMHHGVRFMVVAPSSTIDMEMASGDDIIIEERDGRELLEVGGQRVGADVEAFNPVFDVTPADLIDAIVTEKGIVERPDTARMAQLMSRKHLHLEHHHHHH | soluble
MRILYFDCFAGASGDMILGALLDLGIDVGIFKRELAGLNLDGFDIAVEKKVINSIAVTDVNVIVKEECNHHTGHHHHCERNLADIEKIIDESSLKDNVKRLSKKIFSEIARAEAKVHNKSIEDVHFHEVGAIDSIVDIVGTAICLDLLKVDKIYSSPMHDGTGFIECQHGKLPVPVPAVLEMLKESNIPYITEDVNTELLTPTGLGIIKCVASKFGPMPPMTIEKVGYGAGKRQTGRFNALRCILGNAKEKEKIDDEICMLETNIDDMNPEILGYVMNRLFENGALDVFYTPVYMKKNRPGVLLTVLTDKEHEEKLVDIILTETTTLGIRKTTAQRYVLEREIKHVNTEFGKIRVKESSFGDYKKYSPEFEDCKKVAQELKIPLSKVYDAVNKAILVFEERNENALQ | soluble
MGSDKIHHHHHHMIRINVVGFKGGSGKSTISYHLARQLSEYYNVVLVDKTYSGTISRIYNINNNIFSFLKGRNELFYINKNNLSVINMSFLNEDDLNGIDFNAFKYLYSKLTKDSDIVIVDHSSIPHDFATEIELKAFMENFRNFAYNTVLVLSGDEIPIKKYLNYTVLLNDFVKNYAEKILGISLPTDVKFLKIVAVIINKILKGQESKLEEFIRGDEILQRSARFIIPYYLSLTQRHFKDIDPPKEISDITRYILDFLREPTSIL | not soluble
AIALTYIILVLHLQNHVWEDVTVHNSSLPPLAIKHPECLGLLHQLERSTDVWIQHYCILKDGCLYFYASIRSTQASGGLYLQGYSVSEQTHGFEQPVIELKPSSEEFKTFYFCAENKTENQRWIAALKTSIKKWLPLDQAIQEFMSRPLEETRM | soluble
MGEDTRVSYQDIKARVLAAIRDNTWPPGAMLPGEVALAQEYGCARATVNRAMRELAEEGILERKRKAGTRVKLAPARQARFSIPVVREEIEALGASYRYALVSRSEEATPKWLAAQLGLGAGDRVLHLVCMHYADERPFQLEQRWINLATVPQAAKKDFSQTGPNEWLVSEVPFTDIRLSFSACRGNRETAEFLGGNETDAHFTVERVTWLGERPVTYARLLFHAGYRMTTTL | not soluble
MNSLLFVYGTLRKHEKNHHLLAQSACINEQARTKGSLFAAKEGPTVVFNDEDEGYIYGEVYEADELCIHKLDQFFQGYHKQTVFVETDVGIKIALIYFMNKDGCAGFTKISSGDWKEHQMISKSKNPIYYFAYGSCMDNARFQKAGVDHYFQDPVGRAVLKGYTTRFTLKREDGSRADMLEDGGTTEGVLYRIPYSALSYLYKREGVESLTYRPAFVDVEAGGRHYKDCLTFLVLQKEAEIAPPQHYQIEIERGAELYLSPEFTEKLKRHMNSLPKGLEHHHHHH | soluble
